Reference: patent publication US7629437

Recombinant human βI tryptase, sequence (chain, as listed by the source): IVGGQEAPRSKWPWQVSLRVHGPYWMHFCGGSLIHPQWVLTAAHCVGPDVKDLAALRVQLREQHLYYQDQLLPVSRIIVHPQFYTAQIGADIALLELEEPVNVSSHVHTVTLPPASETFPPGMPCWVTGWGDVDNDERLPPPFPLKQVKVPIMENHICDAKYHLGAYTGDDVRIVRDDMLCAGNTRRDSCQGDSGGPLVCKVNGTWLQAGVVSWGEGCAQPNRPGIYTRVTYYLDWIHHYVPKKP

## Human thrombin
Ac-Leu-Gly-Pro-Lys-ACC
  Km: 195 µM
  kcat: 3.2 s⁻¹
  kcat/Km: 18000 M⁻¹ s⁻¹
Ac-Nle-Thr-Pro-Lys-ACC
  Km: 125 µM
  kcat: 33.7 s⁻¹
  kcat/Km: 280000 M⁻¹ s⁻¹
Ac-Leu-Gly-Pro-Lys-AMC
  Km: 160 µM
  kcat: 2.3 s⁻¹
  kcat/Km: 15000 M⁻¹ s⁻¹
Ac-Nle-Thr-Pro-Lys-AMC
  Km: 115 µM
  kcat: 31 s⁻¹
  kcat/Km: 260000 M⁻¹ s⁻¹

## Recombinant human βI tryptase
Ac-PANK-ACC
  Km: 110 µM
  kcat: 20.3 s⁻¹
  kcat/Km: 180000 M⁻¹ s⁻¹
Ac-PRNR-ACC
  Km: 16.5 µM
  kcat: 21.8 s⁻¹
  kcat/Km: 1.31e+06 M⁻¹ s⁻¹
Ac-PRTK-ACC
  Km: 14.7 µM
  kcat: 18.7 s⁻¹
  kcat/Km: 1.27e+06 M⁻¹ s⁻¹
Ac-PRNK-ACC
  Km: 8.9 µM
  kcat: 16.8 s⁻¹
  kcat/Km: 1.89e+06 M⁻¹ s⁻¹
  preference (kcat/Km) over Ac-PRTK-ACC: A minimal preference, approximately two-fold, for P2-asparagine over P2-threonine

## Recombinant human βII tryptase
Ac-PANK-ACC
  Km: 133 µM
  kcat: 19.1 s⁻¹
  kcat/Km: 140000 M⁻¹ s⁻¹
Ac-PRNR-ACC
  Km: 18.6 µM
  kcat: 20.9 s⁻¹
  kcat/Km: 1.12e+06 M⁻¹ s⁻¹
Ac-PRTK-ACC
  Km: 23.4 µM
  kcat: 18.3 s⁻¹
  kcat/Km: 780000 M⁻¹ s⁻¹
Ac-PRNK-ACC
  Km: 14.5 µM
  kcat: 17.8 s⁻¹
  kcat/Km: 1.23e+06 M⁻¹ s⁻¹
  preference (kcat/Km) over Ac-PRTK-ACC: A minimal preference, approximately two-fold, for P2-asparagine over P2-threonine
